Measured values taken from publication PMC6166933 (PLoS ONE, 2018).
Where “and” joins values, the source holds several entries; their conditions need not be identical. Equal values may be shown once.

Molecular target: T1, Recombinant human RO60 (human, UniProt P10155 1-538)
T1 construct: Recombinant human RO60 (rRO60), Abcam ab73786; see the vendor's data sheet for ab73786; also called rRO60; source: bought: Abcam (ab73786)
Experiment: BLI; BLItz system; antibody against RO60 captured on a Protein-A biosensor, rRO60 bound to it, rDDX6 bound for 2 min and dissociation for 2 min; 25°C; 10 mM Tris-HCl (pH 8.0), 150 mM NaCl; 193 nM rDDX6 with 917 nM or 1833 nM rRO60
Conditions: both partners purified

T1 sequence (P10155 whole entry): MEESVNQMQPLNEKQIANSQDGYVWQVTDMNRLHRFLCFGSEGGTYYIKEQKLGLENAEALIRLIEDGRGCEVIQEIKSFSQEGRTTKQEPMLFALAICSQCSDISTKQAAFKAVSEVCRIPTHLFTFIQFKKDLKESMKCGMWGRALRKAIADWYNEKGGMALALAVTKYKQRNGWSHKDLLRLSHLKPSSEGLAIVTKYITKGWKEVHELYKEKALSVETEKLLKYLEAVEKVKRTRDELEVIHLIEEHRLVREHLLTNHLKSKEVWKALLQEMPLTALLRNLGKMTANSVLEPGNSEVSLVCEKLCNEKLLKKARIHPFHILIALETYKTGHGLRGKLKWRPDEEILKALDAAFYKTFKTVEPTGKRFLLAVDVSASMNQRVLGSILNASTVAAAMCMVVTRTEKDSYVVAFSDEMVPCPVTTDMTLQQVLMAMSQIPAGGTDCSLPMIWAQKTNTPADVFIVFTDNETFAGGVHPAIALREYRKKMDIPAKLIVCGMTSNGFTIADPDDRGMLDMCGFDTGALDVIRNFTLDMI

B1: Recombinant GST-tagged human DDX6 (natural protein, UniProt P26196 1-483, looked up)
chain: MSTARTENPVIMGLSSQNGQLRGPVKPTGGPGGGGTQTQQQMNQLKNTNTINNGTQQQAQSMTTTIKPGDDWKKTLKLPPKDLRIKTSDVTSTKGNEFEDYCLKRELLMGIFEMGWEKPSPIQEESIPIALSGRDILARAKNGTGKSGAYLIPLLERLDLKKDNIQAMVIVPTRELALQVSQICIQVSKHMGGAKVMATTGGTNLRDDIMRLDDTVHVVIATPGRILDLIKKGVAKVDHVQMIVLDEADKLLSQDFVQIMEDIILTLPKNRQILLYSATFPLSVQKFMNSHLQKPYEINLMEELTLKGVTQYYAYVTERQKVHCLNTLFSRLQINQSIIFCNSSQRVELLAKKISQLGYSCFYIHAKMRQEHRNRVFHDFRNGLCRNLVCTDLFTRGIDIQAVNVVINFDFPKLAETYLHRIGRSGRFGHLGLAINLITYDDRFNLKSIEEQLGTEIKPIPSNIDKSLYVAEYHSEPVEDEKP
notes: Recombinant GST-tagged human DDX6 (rDDX6), Abcam ab114574; it is not clear that this means full length; The printed 79 kDa with GST would fit the whole protein; also called rDDX6; source: bought: Abcam (ab114574)
B1 was tested. Which Kd did it give?
The Kd was 620 nM and 950 nM.
